Oligonucleotides are written 5' to 3', each unit as a sugar letter and its base; * is a phosphorothioate linkage, no mark a phosphodiester; rarer units and linkages stand in square brackets, end groups in braces. Plain capitals give the bases only. m = 2'-O-methyl; r = 2'-OH (RNA)
Experiments:
[1] = system: B2M, TRAC, TRBC1/2, CIITA; assay: NGS editing profile of T cells with BC22n or Cas9 mRNA, single or four guides, LNP titration, Example 16A; type: cell-based, human; settings: LNP;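 further: activated T cells exposed to LNPs 72 h after activation, kept at 37 °C, harvested on day 10 post activation, editing measured by NGS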
Method: Cells were expanded in T cell basal media for 72 hours prior to LNP transfection.
LNPs were mixed to fixed total mRNA weight ratios of 6:3:2 for editor mRNA, guide RNA, and UGI mRNA respectively as described in Table 12. […] LNP mixtures were incubated for 5 minutes at 37° C. in T cell basal media substituting 6% cynomolgus monkey serum (Bioreclamation IVT, Cat. CYN220760) for fetal bovine serum.
T cells were incubated at 37° C. with 5% CO2 for the duration of the experiment.
In total, T cells were exposed to 6 different LNPs simultaneously (editor mRNA, UGI mRNA, 4 guides).

[2] = system: B2M, CD3, MHC II; assay: Flow cytometry of antigen negative T cells (B2M, CD3, MHC II) after BC22n or Cas9 editing, Example 16A; type: cell-based, human
From the text: Cells were subsequently washed, processed on a Cytoflex instrument (Beckman Coulter) and analyzed using the FlowJo software package. T cells were gated based on size, shape, viability, and antigen expression.

[3] = multiple guide delivery (four guides simultaneously), locus of the guide assayed, editor BC22n, total RNA 8.6 ng
[4] = multiple guide delivery (four guides simultaneously), locus of the guide assayed, editor BC22n, total RNA 17.2 ng
[5] = multiple guide delivery (four guides simultaneously), locus of the guide assayed, editor BC22n, total RNA 34.4 ng
[6] = multiple guide delivery (four guides simultaneously), locus of the guide assayed, editor BC22n, total RNA 68.8 ng
[7] = multiple guide delivery (four guides simultaneously), locus of the guide assayed, editor BC22n, total RNA 137.5 ng
[8] = multiple guide delivery (four guides simultaneously), locus of the guide assayed, editor BC22n, total RNA 275.0 ng
[9] = multiple guide delivery (four guides simultaneously), locus of the guide assayed, editor BC22n, total RNA 550.0 ng
[10] = multiple guide delivery (four guides simultaneously), locus of the guide assayed, editor Cas9, total RNA 8.6 ng
[11] = multiple guide delivery (four guides simultaneously), locus of the guide assayed, editor Cas9, total RNA 17.2 ng
[12] = multiple guide delivery (four guides simultaneously), locus of the guide assayed, editor Cas9, total RNA 34.4 ng
[13] = multiple guide delivery (four guides simultaneously), locus of the guide assayed, editor Cas9, total RNA 68.8 ng
[14] = multiple guide delivery (four guides simultaneously), locus of the guide assayed, editor Cas9, total RNA 137.5 ng
[15] = multiple guide delivery (four guides simultaneously), locus of the guide assayed, editor Cas9, total RNA 275.0 ng
[16] = multiple guide delivery (four guides simultaneously), locus of the guide assayed, editor Cas9, total RNA 550.0 ng
[17] = single guide delivery, editor BC22n, total RNA 8.6 ng
[18] = single guide delivery, editor BC22n, total RNA 17.2 ng
[19] = single guide delivery, editor BC22n, total RNA 34.4 ng
[20] = single guide delivery, editor BC22n, total RNA 68.8 ng
[21] = single guide delivery, editor BC22n, total RNA 137.5 ng
[22] = single guide delivery, editor BC22n, total RNA 275.0 ng
[23] = single guide delivery, editor BC22n, total RNA 550.0 ng
[24] = single guide delivery, editor Cas9, total RNA 8.6 ng
[25] = single guide delivery, editor Cas9, total RNA 17.2 ng
[26] = single guide delivery, editor Cas9, total RNA 34.4 ng
[27] = single guide delivery, editor Cas9, total RNA 68.8 ng
[28] = single guide delivery, editor Cas9, total RNA 137.5 ng
[29] = single guide delivery, editor Cas9, total RNA 275.0 ng

B1: G016206: guide targeting TRBC1/2 (SEQ ID NO: 713) (nucleic acid)
guide: mC*mG*mC*rUrGrUrCrArArGrUrCrCrArGrUrUrCrUrArGrUrUrUrUrArGrAmGmCmUmAmGmAmAmAmUmAmGmCrArArGrUrUrArArArArUrArArGrGrCrUrArGrUrCrCrGrUrUrArUrCrAmAmCmUmUmGmAmAmAmAmAmGmUmGmGmCmAmCmCmGmAmGmUmCmGmGmUmGmCmU*mU*mU*mU
C-to-A/G % mean [1, 3]: 2.6%
C-to-T % mean [1, 3]: 11.6%
Indel % mean [1, 3]: 2.8%
C-to-A/G % mean [1, 4]: 3.6%
C-to-T % mean [1, 4]: 23.4%
Indel % mean [1, 4]: 2.6%
C-to-A/G % mean [1, 5]: 3.7%
C-to-T % mean [1, 5]: 38.5%
Indel % mean [1, 5]: 2.9%
C-to-A/G % mean [1, 6]: 2.3%
C-to-T % mean [1, 6]: 55.6%
Indel % mean [1, 6]: 2.4%
C-to-A/G % mean [1, 7]: 1.8%
C-to-T % mean [1, 7]: 72.4%
Indel % mean [1, 7]: 1.7%
C-to-A/G % mean [1, 8]: 1.9%
C-to-T % mean [1, 8]: 85.1%
Indel % mean [1, 8]: 1.7%
C-to-A/G % mean [1, 9]: 2.2%
C-to-T % mean [1, 9]: 89.8%
Indel % mean [1, 9]: 0.9%
C-to-A/G % mean [1, 10]: 0.7%
C-to-T % mean [1, 10]: 0.2%
Indel % mean [1, 10]: 2.3%
C-to-A/G % mean [1, 11]: 0.7%
C-to-T % mean [1, 11]: 0.3%
Indel % mean [1, 11]: 4.2%
C-to-A/G % mean [1, 12]: 0.5%
C-to-T % mean [1, 12]: 0.1%
Indel % mean [1, 12]: 6.6%
C-to-A/G % mean [1, 13]: 0.5%
C-to-T % mean [1, 13]: 0.4%
Indel % mean [1, 13]: 12.3%
C-to-A/G % mean [1, 14]: 0.5%
C-to-T % mean [1, 14]: 0.2%
Indel % mean [1, 14]: 17.8%
C-to-A/G % mean [1, 15]: 0.5%
C-to-T % mean [1, 15]: 0.1%
Indel % mean [1, 15]: 33.0%
C-to-A/G % mean [1, 16]: 0.3%
C-to-T % mean [1, 16]: 0.3%
Indel % mean [1, 16]: 43.3%
C-to-A/G % mean [1, 17]: 6.1%
C-to-T % mean [1, 17]: 23.7%
Indel % mean [1, 17]: 6.1%
C-to-A/G % mean [1, 18]: 6.8%
C-to-T % mean [1, 18]: 42.4%
Indel % mean [1, 18]: 6.8%
C-to-A/G % mean [1, 19]: 5.7%
C-to-T % mean [1, 19]: 60.1%
Indel % mean [1, 19]: 5.9%
C-to-A/G % mean [1, 20]: 4.3%
C-to-T % mean [1, 20]: 73.2%
Indel % mean [1, 20]: 4.7%
C-to-A/G % mean [1, 21]: 3.6%
C-to-T % mean [1, 21]: 81.7%
Indel % mean [1, 21]: 3.7%
C-to-A/G % mean [1, 22]: 2.3%
C-to-T % mean [1, 22]: 91.0%
Indel % mean [1, 22]: 2.8%
C-to-A/G % mean [1, 23]: 2.0%
C-to-T % mean [1, 23]: 93.6%
Indel % mean [1, 23]: 1.7%
C-to-A/G % mean [1, 24]: 0.5%
C-to-T % mean [1, 24]: 0.3%
Indel % mean [1, 24]: 8.1%
C-to-A/G % mean [1, 25]: 0.7%
C-to-T % mean [1, 25]: 0.3%
Indel % mean [1, 25]: 14.9%
C-to-A/G % mean [1, 26]: 0.8%
C-to-T % mean [1, 26]: 0.2%
Indel % mean [1, 26]: 24.1%
C-to-A/G % mean [1, 27]: 0.4%
C-to-T % mean [1, 27]: 0.2%
Indel % mean [1, 27]: 35.9%
C-to-A/G % mean [1, 28]: 0.5%
C-to-T % mean [1, 28]: 0.2%
Indel % mean [1, 28]: 48.6%
C-to-A/G % mean [1, 29]: 0.4%
C-to-T % mean [1, 29]: 0.1%
Indel % mean [1, 29]: 63.8%
percent cells negative for antigen, CD3 neg, Mean % ([2]; editor BC22n, total RNA 8.6 ng): 32.6%
percent cells negative for antigen, CD3 neg, Mean % ([2]; editor BC22n, total RNA 17.2 ng): 53.4%
percent cells negative for antigen, CD3 neg, Mean % ([2]; editor BC22n, total RNA 34.4 ng): 71.9%
percent cells negative for antigen, CD3 neg, Mean % ([2]; editor BC22n, total RNA 68.8 ng): 82.9%
percent cells negative for antigen, CD3 neg, Mean % ([2]; editor BC22n, total RNA 137.5 ng): 90.4%
percent cells negative for antigen, CD3 neg, Mean % ([2]; editor BC22n, total RNA 275.0 ng): 96.0%
percent cells negative for antigen, CD3 neg, Mean % ([2]; editor BC22n, total RNA 550.0 ng): 97.9%
percent cells negative for antigen, CD3 neg, Mean % ([2]; editor Cas9, total RNA 8.6 ng): 7.9%
percent cells negative for antigen, CD3 neg, Mean % ([2]; editor Cas9, total RNA 17.2 ng): 16.1%
percent cells negative for antigen, CD3 neg, Mean % ([2]; editor Cas9, total RNA 34.4 ng): 27.0%
percent cells negative for antigen, CD3 neg, Mean % ([2]; editor Cas9, total RNA 68.8 ng): 40.6%
percent cells negative for antigen, CD3 neg, Mean % ([2]; editor Cas9, total RNA 137.5 ng): 59.4%
percent cells negative for antigen, CD3 neg, Mean % ([2]; editor Cas9, total RNA 275.0 ng): 77.3%
percent cells negative for antigen, CD3 neg, Mean % ([2]; editor Cas9, total RNA 550.0 ng): 86.6%

Source: US20230183753A1, “Methods of in Vitro Cell Delivery” (Intellia Therapeutics, Inc., priority 2020, published 2023)
